To fix the notation:
B1: No. 260 항체 (Full IgG) (antibody, V domains shown)
VH: EVQLVESGGGLVQPGRTLRLSCAASGFTFDDYAMHWVRQPPGKGLEWVSGIDWNSGLIGYADAVKGRFTLSRDNAKNSIFLQMNSLRAEDTALYYCVKDMGSTGGYYGMDVWGQGTTVIVSS
VL: not shown
B2: No. 270 항체 (Full IgG) (antibody, V domains shown)
VH: QVQLVQSGGGLVQPGGSLRLSCAASGLTVSSNYMTWVRQAPGKGLEWVSVIYSGGSTFYADSVKGRFTISRDNSKNTLYLQMNSLRAEDTAVYYCARDLVVYGMDVWGQGTTVTVSS
VL: ELVLTQSPGTLSLSPGERATLSCRASQSVSSYLAWYQQKPGQAPRLLIYDASNRATGIPARFSGSGSGTDFTLTISSLEPEDFAVYYCQQYGSSPLTFGGGTKVDIK
B3: No. 281 항체 (Full IgG) (antibody, V domains shown)
VH: B2 VH with L27I, T35S, F58N, V100I
VL: ELVLTQPPSVSGAPGQRVTISCTGSSSNIGAGYDVHWYQQLPGTAPKLLIYGNSNRPSGVPDRFSGSKSGTSASLAITGLQAEDEADYYCAAWDDSLSGWVFGGGTKVTVL
B4: No. 271 항체 (Full IgG) (antibody, V domains shown)
VH: B2 VH with Q1E, Q6E, L27F
VL: ELELTQPPSASGTPGQRVTISCSGSSSNIGSNTVNWYQQLPGTAPKLLIYSNNQRPSGVPDRFSGSKSGTSASLAISGLQSEDEADYYCSSYAGSNNLVFGGGTKLTVL
B5: No. 274 항체 (Full IgG) (antibody, V domains shown)
VH: B2 VH with Q1E, Q6E, L27F
VL: ELELTQPPSVSGAPGQRVTISCTGSSSNIGAGYDVHWYQQLPGTAPKLLIYGNSNRPSGVPDRFSGSKSGTSASLAITGLQAEDEADYYCQSYDSSLGVVFGGGTKVTVL
B6: No. 275 항체 (Full IgG) (antibody, V domains shown)
VH: B2 VH with Q1E, Q6E, L27F
VL: ELVLTQPPSVSVAPGKTARITCGGNNIGSNTVNWYQQLPGTAPKLLIYSNNLRPSGVPDRFSGSKSGTSASLAISGLQSEDEADYYCAAWDDSLNGPVFGGGTKVTVL
B7: No. 217 항체 (Full IgG) (antibody, V domains shown)
VH: EVQLVESGGGVVQPGRSLRLSCAASGFTFSRFAMHWVRQAPGKGLEWVAVVSYDGSNNYYADSVKGRFTISRDNSKNTLYLQMNSLRAEDTAVYYCARGDYYGSGSYYNPSPFFDYWGQGTLVTVSS
VL: not shown
B8: No. 230 항체 (Full IgG) (antibody, V domains shown)
VH: B7 VH with E1Q, E6Q, R31N, V51I, N58K, S75F
VL: not shown
B9: No. 218 항체 (Full IgG) (antibody, V domains shown)
VH: B7 VH with E1Q, E6Q, R31S, V51I, Y53F, N58K, R67Q
VL: ELELTQPPSVSGTPGQRVSISCSGSTSNIGSNPVNWFQQLPGTAPKLLIYSNNQRPSGVPNRFSGSKSGTSASLAISGLQSDDEADYYCAAWDDSLNGWVFGGGTKVTVL
B10: No. 152 항체 (Full IgG) (antibody, V domains shown)
VH: QITLKESGPSLVKPSQTLTLTCTFSGFSLTTSGMGVGWIRQPPGKALEWLALIDWDDNKYYTTSLKTRLTISKDTSKNQVVLTMTNMDPVDTATYYCARIPGFLRYRNRYYYYGMDVWGQGTTVTVSS
VL: ELVLTQPPSVSAAPGQKVTISCSGRSSNIGNNYVSWYQQLPGTAPKLLIYDNNKRPSGIPDRFSGSKSGTSATLGITGLQTGDEADYYCGTWDSSLSAGVFGGGTQLTVL
B11: No. 284 항체 (Full IgG) (antibody, V domains shown)
VH: QVQLVQSGGGLVQPGGSLRLSCAASGVTVSSNYMSWVRQAPGKGLEWVSVIYSGGSTYYADSVKGRFTISRHNSKNTLYLQMNSLRAEDTAVYYCARGHVDIPYGMDVWGQGTTVTVSS
VL: B10 VL with R25S

Numbering of substitutions follows the chain as printed.

For the first assay, the target named is T1, S protein of SARS-CoV-2 BetaCoV/Korea/KCDC03/2020 (614D, S형) (SARS-CoV-2, UniProt P0DTC2 14-1273). Put plainly: cell-based or functional assay.
On to B1, for which the “IC50, PRNT” value was more than 1 µg/mL.

The target of the next assay is S protein of SARS-CoV-2 hCoV-19/South Korea/KUMC17/2020 (614G) (SARS-CoV-2, UniProt P0DTC2 14-1273). The assay can be described thus: cell-based or functional assay.
With B1, the “IC50, PRNT” value was more than 1 µg/mL.

In the next assay the target is T1, S protein of SARS-CoV-2 …. The assay can be described thus: cell-based or functional assay. This is another data set of the same source.
In the case of B2, the “IC50, PRNT” value turned out to be 0.152 µg/mL.

Turning to B3, the “IC50, PRNT” value stood at 1.43 µg/mL.

Regarding B4, the “IC50, PRNT” value worked out at 1.68 µg/mL.

Take B5: the “IC50, PRNT” value came out at 0.301 µg/mL.

On to B6, for which the “IC50, PRNT” value is 0.272 µg/mL.

Turning to B7, the “IC50, PRNT” value was determined as 5.95 µg/mL.

On to B8, for which the “IC50, PRNT” value is 0.432 µg/mL.

B9: the “IC50, PRNT” value was determined as 0.562 µg/mL.

For the molecule B10, the “IC50, PRNT” value was 0.0062 µg/mL.

Regarding B11, the “IC50, PRNT” value is 0.702 µg/mL.

B1: the “IC50, PRNT” value was determined as 0.401 µg/mL.

These data come from KR20210118351A (dated 2021).
